In patent US20200376013:

System: SDM-145

Sequence of hMMP-9 (chain, as listed by the source): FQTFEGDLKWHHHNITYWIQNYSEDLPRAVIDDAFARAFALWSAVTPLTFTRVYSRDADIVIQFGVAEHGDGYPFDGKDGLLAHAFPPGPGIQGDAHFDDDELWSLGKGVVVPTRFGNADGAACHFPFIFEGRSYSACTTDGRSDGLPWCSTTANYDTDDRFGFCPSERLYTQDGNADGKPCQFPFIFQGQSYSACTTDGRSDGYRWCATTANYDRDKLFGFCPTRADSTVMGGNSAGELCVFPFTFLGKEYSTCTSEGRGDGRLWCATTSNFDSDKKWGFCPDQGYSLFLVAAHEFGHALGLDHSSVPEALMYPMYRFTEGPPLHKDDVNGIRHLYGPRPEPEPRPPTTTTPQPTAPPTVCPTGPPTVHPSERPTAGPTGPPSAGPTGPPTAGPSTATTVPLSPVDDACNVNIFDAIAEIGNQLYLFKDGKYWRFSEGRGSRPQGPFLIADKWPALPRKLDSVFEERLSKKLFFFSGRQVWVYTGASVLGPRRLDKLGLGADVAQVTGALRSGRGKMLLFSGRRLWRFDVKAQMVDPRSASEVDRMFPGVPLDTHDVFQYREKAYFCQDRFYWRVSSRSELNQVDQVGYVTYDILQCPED

Substance: Cathepsin B, human liver
- cleavage followed by LC-MS with fluorescence detection (ex 480 nm, em 560 nm), sodium acetate buffer pH 5.0, 37 C: The cleavage reaction was complete after 17 hour.

Substance: hMMP-9
- cleavage followed by LC-MS with fluorescence detection (ex 480 nm, em 560 nm), TCNB buffer pH 7.5, 37 C: The cleavage reaction was complete after 17 hour.
